For the data set, the target named is human tau protein, P10636.
Sequence of human tau protein, P10636 (P10636 whole entry, looked up): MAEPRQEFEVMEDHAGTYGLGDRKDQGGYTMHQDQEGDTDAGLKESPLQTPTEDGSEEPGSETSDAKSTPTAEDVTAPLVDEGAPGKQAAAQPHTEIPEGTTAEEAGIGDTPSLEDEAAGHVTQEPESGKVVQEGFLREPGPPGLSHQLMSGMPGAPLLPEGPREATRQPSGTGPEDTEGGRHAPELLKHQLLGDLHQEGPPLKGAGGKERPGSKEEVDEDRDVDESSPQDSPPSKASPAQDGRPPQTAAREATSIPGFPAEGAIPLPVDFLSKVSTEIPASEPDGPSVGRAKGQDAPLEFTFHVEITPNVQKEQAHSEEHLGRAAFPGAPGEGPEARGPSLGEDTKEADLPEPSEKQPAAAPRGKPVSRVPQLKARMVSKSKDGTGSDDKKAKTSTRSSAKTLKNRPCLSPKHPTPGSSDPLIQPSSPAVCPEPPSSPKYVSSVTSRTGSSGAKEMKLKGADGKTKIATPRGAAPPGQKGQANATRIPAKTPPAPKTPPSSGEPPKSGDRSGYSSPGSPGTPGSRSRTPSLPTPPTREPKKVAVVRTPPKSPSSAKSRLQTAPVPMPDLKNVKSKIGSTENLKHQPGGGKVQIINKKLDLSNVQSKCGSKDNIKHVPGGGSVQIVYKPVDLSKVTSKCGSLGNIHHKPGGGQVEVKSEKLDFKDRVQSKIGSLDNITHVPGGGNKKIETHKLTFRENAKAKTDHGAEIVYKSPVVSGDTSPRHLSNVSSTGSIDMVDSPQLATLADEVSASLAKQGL

B1: human MARK4 (microtubule affinity regulating kinase 4) (protein)
chain: MSSRTVLAPGNDRNSDTHGTLGSGRSSDKGPSWSSRSLGARCRNSIASCPEEQPHVGNYRLLRTIGKGNFAKVKLARHILTGREVAIKIIDKTQLNPSSLQKLFREVRIMKGLNHPNIVKLFEVIETEKTLYLVMEYASAGEVFDYLVSHGRMKEKEARAKFRQIVSAVHYCHQKNIVHRDLKAENLLLDAEANIKIADFGFSNEFTLGSKLDTFCGSPPYAAPELFQGKKYDGPEVDIWSLGVILYTLVSGSLPFDGHNLKELRERVLRGKYRVPFYMSTDCESILRRFLVLNPAKRCTLEQIMKDKWINIGYEGEELKPYTEPEEDFGDTKRIEVMVGMGYTREEIKESLTSQKYNEVTATYLLLGRKTEEGGDRGAPGLALARVRAPSDTTNGTSSSKGTSHSKGQRSSSSTYHRQRRHSDFCGPSPAPLHPKRSPTSTGEAELKEERLPGRKASCSTAGSGSRGLPPSSPMVSSAHNPNKAEIPERRKDSTSTPNNLPPSMMTRRNTYVCTERPGAERPSLLPNGKENSSGTPRVPPASPSSHSLAPPSGERSRLARGSTIRSTFHGGQVRDRRAGGGGGGGVQNGPPASPTLAHEAAPLPAGRPRPTTNLFTKLTSKLTRRVADEPERIGGPEVTSCHLPWDQTETAPRLLRFPWSVKLTSSRPPEALMAALRQATAAARCRCRQPQPFLLACLHGGAGGPEPLSHFEVEVCQLPRPGLRGVLFRRVAGTALAFRTLVTRISNDLEL
As to B1, the “in vitro kinase assay: phospho-tau, Western blot” value is “the levels of total tau and phospho-tau generated by MARK4 were detected by Western blot analysis”.

The values are drawn from patent US20160030510.
